This series concerns the molecule itself. Put plainly: crystal structure; hanging-drop vapor diffusion, 298 K, protein at 37 mg/ml with 1 mM GDP (1.35 Å) or 30 mg/ml with 1 mM GTP (1.40 Å); space group P2(1), one molecule in the asymmetric unit; filament generated by crystal packing.

B1: E. coli FtsZ(L178E), truncated to the globular domain (residues 10-316) (domain or fragment, E. coli K-12, UniProt P0A9A6 10-316, looked up)
chain: DAVIKVIGVGGGGGNAVEHMVRERIEGVEFFAVNTDAQALRKTAVGQTIQIGSGITKGLGAGANPEVGRNAADEDRDALRAALEGADMVFIAAGMGGGTGTGAAPVVAEVAKDLGILTVAVVTKPFNFEGKKRMAFAEQGITELSKHVDSLITIPNDKLLKVLGRGISELDAFGAANDVLKGAVQGIAELITRPGLMNVDFADVRTVMSEMGYAMMGSGVASGEDRAEEAAEMAISSPLLEDIDLSGARGVLVNITAGFDLRLDEFETVGNTIRAFASDNATVVIGTSLDPDMNDELRVTVVATGIG
notes: FtsZ, E. coli K-12, globular domain, residues 10-316, with the mutation L178E; expressed from pET-11; Crystallized with 1 mM GDP (PDB 6umk) or 1 mM GTP (PDB 6unx); No tag is mentioned; One molecule in the asymmetric unit; the protofilament arises from crystal packing; also called EcFtsZ(L178E); source: E. coli BL21(DE3), purified (ammonium sulfate precipitation, Resource Q anion exchange)
With B1, the binding result is recorded as “binds”.

Source of the values: paper PMC7010359, “High-resolution crystal structures of Escherichia coli FtsZ bound to GDP and GTP” (Acta Crystallographica. Section F, Structural Biology …, 2020).
